Measured values: US20210196796A1 (SYNTHEKINE, published 2021)

T1: orthogonal hCD122 receptor (hoRb), hCD122 with H133D and Y134F (human, UniProt P14784 27-550)
T1 sequence: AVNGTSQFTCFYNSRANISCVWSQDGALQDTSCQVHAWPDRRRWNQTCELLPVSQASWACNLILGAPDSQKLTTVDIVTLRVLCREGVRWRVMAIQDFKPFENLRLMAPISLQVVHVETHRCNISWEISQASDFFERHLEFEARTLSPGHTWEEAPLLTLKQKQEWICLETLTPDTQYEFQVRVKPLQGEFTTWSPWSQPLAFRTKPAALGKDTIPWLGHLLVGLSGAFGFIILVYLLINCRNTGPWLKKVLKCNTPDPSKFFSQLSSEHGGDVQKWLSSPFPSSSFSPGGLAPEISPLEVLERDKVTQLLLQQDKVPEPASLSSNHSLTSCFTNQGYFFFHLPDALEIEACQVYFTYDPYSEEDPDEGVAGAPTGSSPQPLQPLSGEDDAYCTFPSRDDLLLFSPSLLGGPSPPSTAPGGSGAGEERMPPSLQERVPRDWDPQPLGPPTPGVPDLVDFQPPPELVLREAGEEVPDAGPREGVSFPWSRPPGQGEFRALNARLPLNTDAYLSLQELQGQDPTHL


Assays:
[1] = target: T1, orthogonal hCD122 receptor (hoRb), …; test: cell-based or functional assay
[2] = target: T1, orthogonal hCD122 receptor (hoRb), …; test: cell-based or functional assay; remark: listed apart in the source
Throughout, for Relative Proliferation Fold Change 3F8 1:10: reference of the scale not given here.
Throughout, for Relative Proliferation Fold Change 3F8 1:2: reference of the scale not given here.
Throughout, for Relative Proliferation Fold Change 3F8 1:50: reference of the scale not given here.
Throughout, for Relative Proliferation Fold Change NKL 1:10: reference of the scale not given here.
Throughout, for Relative Proliferation Fold Change NKL 1:2: reference of the scale not given here.
Throughout, for Relative Proliferation Fold Change NKL 1:50: reference of the scale not given here.

| Binder | NKL Ortho Proliferation Signal 1:2 [1] | NKL Ortho Proliferation Signal 1:10 [1] | NKL Ortho Proliferation Signal 1:50 [1] | Relative Proliferation Fold Change NKL 1:2 [1] | Relative Proliferation Fold Change NKL 1:10 [1] | Relative Proliferation Fold Change NKL 1:50 [1] | 3F8 Ortho Proliferation Signal 1:2 [2] | 3F8 Ortho Proliferation Signal 1:10 [2] | 3F8 Ortho Proliferation Signal 1:50 [2] | Relative Proliferation Fold Change 3F8 1:2 [2] | Relative Proliferation Fold Change 3F8 1:10 [2] | Relative Proliferation Fold Change 3F8 1:50 [2] |
| --- | --- | --- | --- | --- | --- | --- | --- | --- | --- | --- | --- | --- |
| SQVLHA (ligand) APTSSSTKKTQLQLSQLLVLLHAILNGINNYKNPKLTRMLTFKFYMPKKATELKHLQCLEEELKPLEEVLNLAQSKNFHLRPRDLISNINVIVLELKGSETTFMCEYADETATIVEFLNRWITFCQSIISTLT | 53000 | 26000 | 13300 | 3.46 fold | 1.63 fold | 0.87 fold | 32600 cts/min | 35100 cts/min | 19100 cts/min | 80.2 fold | 56.4 fold | 25.8 fold |
| SQVLNA (ligand) APTSSSTKKTQLQLSQLLVLLNAILNGINNYKNPKLTRMLTFKFYMPKKATELKHLQCLEEELKPLEEVLNLAQSKNFHLRPRDLISNINVIVLELKGSETTFMCEYADETATIVEFLNRWITFCQSIISTLT | 50600 | 36500 | 17300 | 4.55 fold | 3 fold | 1.4 fold | 32600 cts/min | 35100 cts/min | 19100 cts/min | 80.2 fold | 56.4 fold | 25.8 fold |
| SQVLDA (ligand) APTSSSTKKTQLQLSQLLVLLDAILNGINNYKNPKLTRMLTFKFYMPKKATELKHLQCLEEELKPLEEVLNLAQSKNFHLRPRDLISNINVIVLELKGSETTFMCEYADETATIVEFLNRWITFCQSIISTLT | 35100 | 22700 | 11600 | 2.55 fold | 1.65 fold | 0.95 fold | 33400 cts/min | 32300 cts/min | 19600 cts/min | 43 fold | 38.8 fold | 30.2 fold |
| SQVLKW (ligand) APTSSSTKKTQLQLSQLLVLLKWILNGINNYKNPKLTRMLTFKFYMPKKATELKHLQCLEEELKPLEEVLNLAQSKNFHLRPRDLISNINVIVLELKGSETTFMCEYADETATIVEFLNRWITFCQSIISTLT | 52000 | 36000 | 17900 | 3.55 fold | 2.52 fold | 1.33 fold | 40800 cts/min | 32600 cts/min | 20500 cts/min | 36 fold | 24.7 fold | 34.3 fold |
| SQVLIA (ligand) APTSSSTKKTQLQLSQLLVLLIAILNGINNYKNPKLTRMLTFKFYMPKKATELKHLQCLEEELKPLEEVLNLAQSKNFHLRPRDLISNINVIVLELKGSETTFMCEYADETATIVEFLNRWITFCQSIISTLT | 13000 | 10700 | 6780 | 1.11 fold | 0.78 fold | 0.53 fold | 18600 cts/min | 10500 cts/min | 3500 cts/min | 0.45 fold | 1.2 fold | 0.77 fold |

The next lines start with the values.

| NKL Ortho Proliferation Signal 1:2 [1] | NKL Ortho Proliferation Signal 1:10 [1] | NKL Ortho Proliferation Signal 1:50 [1] | Relative Proliferation Fold Change NKL 1:2 [1] | Relative Proliferation Fold Change NKL 1:10 [1] | Relative Proliferation Fold Change NKL 1:50 [1] | 3F8 Ortho Proliferation Signal 1:2 [2] | 3F8 Ortho Proliferation Signal 1:10 [2] | 3F8 Ortho Proliferation Signal 1:50 [2] | Relative Proliferation Fold Change 3F8 1:2 [2] | Relative Proliferation Fold Change 3F8 1:10 [2] | Relative Proliferation Fold Change 3F8 1:50 [2] | Binder |
| --- | --- | --- | --- | --- | --- | --- | --- | --- | --- | --- | --- | --- |
| 27600 | 19000 | 8950 | 2.87 fold | 1.43 fold | 0.73 fold | 6220 cts/min | 4410 cts/min | 2930 cts/min | 12.9 fold | 7.97 fold | 2.82 fold | ΔM23, SQVLK- (ligand) APTSSSTKKTQLQLSQLLVLLKILNGINNYKNPKLTRMLTFKFYMPKKATELKHLQCLEEELKPLEEVLNLAQSKNFHLRPRDLISNINVIVLELKGSETTFMCEYADETATIVEFLNRWITFCQSIISTLT |
| 14000 | 11100 | 8870 | 1.14 fold | 0.66 fold | 0.54 fold | 7840 cts/min | 4470 cts/min | 714 cts/min | 14.6 fold | 3.35 fold | 0.92 fold | SQVLWA (ligand) APTSSSTKKTQLQLSQLLVLLWAILNGINNYKNPKLTRMLTFKFYMPKKATELKHLQCLEEELKPLEEVLNLAQSKNFHLRPRDLISNINVIVLELKGSETTFMCEYADETATIVEFLNRWITFCQSIISTLT |
| 16000 | 13000 | 7840 | 2.1 fold | 1.25 fold | 0.77 fold | 22000 cts/min | 14500 cts/min | 4060 cts/min | 117 fold | 23.9 fold | 6 fold | SQVLSA (ligand) APTSSSTKKTQLQLSQLLVLLSAILNGINNYKNPKLTRMLTFKFYMPKKATELKHLQCLEEELKPLEEVLNLAQSKNFHLRPRDLISNINVIVLELKGSETTFMCEYADETATIVEFLNRWITFCQSIISTLT |
| 13200 | 11600 | 8390 | 1.21 fold | 0.83 fold | 0.63 fold | 12500 cts/min | 8030 cts/min | 2510 cts/min | 29.7 fold | 9.79 fold | 2.73 fold | SQVLYA, E116G (ligand) APTSSSTKKTQLQLSQLLVLLYAILNGINNYKNPKLTRMLTFKFYMPKKATELKHLQCLEEELKPLEEVLNLAQSKNFHLRPRDLISNINVIVLELKGSETTFMCEYADETATIVEFLNRWITFCQSIISTLT |
| 60800 | 68400 | 34300 | 4.33 fold | 4.06 fold | 2.28 fold | 33400 cts/min | 32300 cts/min | 19600 cts/min | 43 fold | 38.8 fold | 30.2 fold | SQVLRA (ligand) APTSSSTKKTQLQLSQLLVLLRAILNGINNYKNPKLTRMLTFKFYMPKKATELKHLQCLEEELKPLEEVLNLAQSKNFHLRPRDLISNINVIVLELKGSETTFMCEYADETATIVEFLNRWITFCQSIISTLT |
| 10800 | 8600 | 6590 | 0.83 fold | 0.62 fold | 0.51 fold | 8530 cts/min | 5590 cts/min | 1850 cts/min | 20.2 fold | 9.6 fold | 2.1 fold | SQVLVA (ligand) APTSSSTKKTQLQLSQLLVLLVAILNGINNYKNPKLTRMLTFKFYMPKKATELKHLQCLEEELKPLEEVLNLAQSKNFHLRPRDLISNINVIVLELKGSETTFMCEYADETATIVEFLNRWITFCQSIISTLT |
| 26400 | 19400 | 7650 | 2.27 fold | 1.38 fold | 0.6 fold | 24100 cts/min | 15100 cts/min | 6550 cts/min | 0.46 fold | 10.9 fold | 5.95 fold | SQVLTA (ligand) APTSSSTKKTQLQLSQLLVLLTAILNGINNYKNPKLTRMLTFKFYMPKKATELKHLQCLEEELKPLEEVLNLAQSKNFHLRPRDLISNINVIVLELKGSETTFMCEYADETATIVEFLNRWITFCQSIISTLT |
